# Results taken from patent US20140127815A1.
# Biological target: GPIba (CD42b) (human) (UniProt P07359)
# Test: cell-based or functional assay
# Chain of UniProt P07359 (P07359 17-652): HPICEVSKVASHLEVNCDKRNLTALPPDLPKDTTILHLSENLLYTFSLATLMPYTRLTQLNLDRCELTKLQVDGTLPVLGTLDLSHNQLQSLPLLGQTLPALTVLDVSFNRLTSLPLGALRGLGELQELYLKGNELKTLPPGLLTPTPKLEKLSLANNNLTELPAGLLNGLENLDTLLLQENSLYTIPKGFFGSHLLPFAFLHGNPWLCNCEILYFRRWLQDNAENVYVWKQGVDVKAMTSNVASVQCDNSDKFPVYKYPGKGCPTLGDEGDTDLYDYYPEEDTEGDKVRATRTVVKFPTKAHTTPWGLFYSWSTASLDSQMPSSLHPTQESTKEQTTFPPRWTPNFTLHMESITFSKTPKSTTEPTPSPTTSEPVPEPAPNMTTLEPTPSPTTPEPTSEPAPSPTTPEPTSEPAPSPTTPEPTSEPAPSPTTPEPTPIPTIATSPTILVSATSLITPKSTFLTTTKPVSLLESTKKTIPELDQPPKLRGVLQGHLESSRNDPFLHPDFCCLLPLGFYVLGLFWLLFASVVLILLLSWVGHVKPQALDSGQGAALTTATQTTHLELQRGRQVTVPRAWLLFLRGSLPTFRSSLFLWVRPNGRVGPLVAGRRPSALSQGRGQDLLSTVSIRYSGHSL
substance,measurement,value
HIP1 antibody,ristocetin agglutination reaction of human peripheral blood platelets (maximum light transmission),> 10 µg/mL
